One protein from publication PMC3466254, “Cthrc1, a Novel Circulating Hormone Regulating Metabolism” (PLoS ONE, 2012) can be followed below.

The series deals with the molecule itself. As to the kind of experiment: non-reducing SDS-PAGE with autoradiography; 1 µl of plasma of Cthrc1 null mice taken 30 min after intra-arterial injection of purified 125I-Cthrc1; SDS-PAGE under non-reducing conditions, autoradiography.

B1: rat Cthrc1 with a C terminal myc/6×His tag, labeled with 125I (natural protein, UniProt Q8CG08 33-245, looked up)
chain: SENPKVKQKALIRQREVVDLYNGMCLQGPAGVPGRDGSPGANGIPGTPGIPGRDGFKGEKGECLRESFEESWTPNYKQCSWSSLNYGIDLGKIAECTFTKMRSNSALRVLFSGSLRLKCRNACCQRWYFTFNGAECSGPLPIEAIIYLDQGSPELNSTINIHRTSSVEGLCEGIGAGLVDVAIWVGTCSDYPKGDASTGWNSVSRIIIEELPK
modifications: labeled with 125I (iodination tubes); residues not stated
notes: Cthrc1 (collagen triple helix repeat containing 1), rat; secreted into the conditioned medium; also called 125I-Cthrc1; 125I-labeled Cthrc1
With B1, the binding result is recorded as “binds”.
